This is an account of results in paper PMC12033910.

The target in this data set is holo-PhuS H209A (Pseudomonas aeruginosa PAO1, UniProt O68880 1-354, H209A). The data set is described as follows: EMSA.

B1: prrF1-50 (5'-biotin) (dsDNA)
DNA 1: AGCAGAAAAGTTTGGCGAAAGCGTTTGACATGGAAATGAGAATCATTATT
DNA 2: AATAATGATTCTCATTTCCATGTCAAACGCTTTCGCCAAACTTTTCTGCT
B1: the binding result is reported as “binds”.
